Test results as given in patent US20070087966A1.

Biological target: rat PRL receptor (PRL-R) on trigeminal ganglia neurons (rat) (UniProt P05710)
Assay: cell-based or functional assay

Chain of rat PRL receptor (PRL-R) on trigeminal ganglia neurons (rat) (P05710 20-610): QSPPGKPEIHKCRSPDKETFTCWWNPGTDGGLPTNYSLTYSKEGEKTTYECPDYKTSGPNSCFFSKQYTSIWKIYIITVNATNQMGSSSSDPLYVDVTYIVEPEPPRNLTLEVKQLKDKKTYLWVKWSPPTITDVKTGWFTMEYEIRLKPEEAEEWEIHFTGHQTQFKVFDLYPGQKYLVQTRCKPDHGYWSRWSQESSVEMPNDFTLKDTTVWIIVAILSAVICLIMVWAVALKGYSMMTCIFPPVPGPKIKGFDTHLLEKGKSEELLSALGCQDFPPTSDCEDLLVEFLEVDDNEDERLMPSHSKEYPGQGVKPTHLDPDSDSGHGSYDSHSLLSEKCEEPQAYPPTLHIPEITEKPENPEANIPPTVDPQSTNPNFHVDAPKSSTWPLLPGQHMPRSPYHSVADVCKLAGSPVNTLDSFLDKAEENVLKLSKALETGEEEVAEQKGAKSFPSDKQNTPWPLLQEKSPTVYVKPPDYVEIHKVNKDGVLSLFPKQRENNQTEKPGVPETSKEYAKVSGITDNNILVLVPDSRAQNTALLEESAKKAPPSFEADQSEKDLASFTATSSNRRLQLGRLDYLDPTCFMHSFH

| TRPV1 phosphorylation (32P incorporation) in TG neurons from intact female rats, PRL 40 nM for 10 min | capsaicin-evoked Ca2+ influx in TG neurons from intact female rats (PRL 40 nM, 10 min) | reduction of the PRL effect on Icap (G129R-PRL 16 nM with rPRL 4 nM) | Substance | EC50 of sensitization of capsaicin-induced currents (Icap) in TG neurons from naive female rats |
| --- | --- | --- | --- | --- |
| 150% | 71% | – | Ovine PRL [oPRL-21, BIO] (from UniProt P01240 31-229) (ligand) | 0.27 nM |
| – | – | 40% | G129R-hPRL (ligand) | – |
